Measurements published in patent publication US20130133089A1 (MEDICAL RESEARCH INFRASTRUCTURE AND HEALTH SERVICES FUND OF …, published 2013).
Each block holds one binder with its values, some of them ahead of it.

What was measured:
[1] = molecular target: T1, Recombinant human leptin binding domain (hLBD) (human, UniProt P48357 428-635, biotinylated with Sulfo-NHS-LC-Biotin in the yeast display assays; not labelled when immobilized in the plate binding assay); test: yeast display, flow cytometry titration with biotinylated hLBD (FIG. 4A)
T1 construct: CRH2 sub-domain of the leptin receptor; Prepared in the applicants' laboratory; also called soluble human leptin receptor; CHR2
T1 sequence (looked up): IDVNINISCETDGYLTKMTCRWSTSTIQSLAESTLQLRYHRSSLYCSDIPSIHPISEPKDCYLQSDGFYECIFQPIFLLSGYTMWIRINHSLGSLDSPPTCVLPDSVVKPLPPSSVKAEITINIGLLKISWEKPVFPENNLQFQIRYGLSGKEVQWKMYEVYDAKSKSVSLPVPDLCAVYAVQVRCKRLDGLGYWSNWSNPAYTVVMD
Text: (§1) Those 7 mouse leptin mutants were selected for preparation of respectively mutated leptins expressed in E. coli.

[2] = molecular target: T1, Recombinant human leptin binding domain …; test: yeast display, flow cytometry titration with biotinylated hLBD (FIG. 4B)
Text: as §1

[3] = molecular target: long form of human leptin receptor (hLEPR) on BAF/3 or H-49 (HEK-293) cells (human), P48357; test: cell-based or functional assay
Sequence of long form of human leptin receptor (hLEPR) on BAF/3 or H-49 (HEK-293) cells (human), P48357 (P48357 22-1165): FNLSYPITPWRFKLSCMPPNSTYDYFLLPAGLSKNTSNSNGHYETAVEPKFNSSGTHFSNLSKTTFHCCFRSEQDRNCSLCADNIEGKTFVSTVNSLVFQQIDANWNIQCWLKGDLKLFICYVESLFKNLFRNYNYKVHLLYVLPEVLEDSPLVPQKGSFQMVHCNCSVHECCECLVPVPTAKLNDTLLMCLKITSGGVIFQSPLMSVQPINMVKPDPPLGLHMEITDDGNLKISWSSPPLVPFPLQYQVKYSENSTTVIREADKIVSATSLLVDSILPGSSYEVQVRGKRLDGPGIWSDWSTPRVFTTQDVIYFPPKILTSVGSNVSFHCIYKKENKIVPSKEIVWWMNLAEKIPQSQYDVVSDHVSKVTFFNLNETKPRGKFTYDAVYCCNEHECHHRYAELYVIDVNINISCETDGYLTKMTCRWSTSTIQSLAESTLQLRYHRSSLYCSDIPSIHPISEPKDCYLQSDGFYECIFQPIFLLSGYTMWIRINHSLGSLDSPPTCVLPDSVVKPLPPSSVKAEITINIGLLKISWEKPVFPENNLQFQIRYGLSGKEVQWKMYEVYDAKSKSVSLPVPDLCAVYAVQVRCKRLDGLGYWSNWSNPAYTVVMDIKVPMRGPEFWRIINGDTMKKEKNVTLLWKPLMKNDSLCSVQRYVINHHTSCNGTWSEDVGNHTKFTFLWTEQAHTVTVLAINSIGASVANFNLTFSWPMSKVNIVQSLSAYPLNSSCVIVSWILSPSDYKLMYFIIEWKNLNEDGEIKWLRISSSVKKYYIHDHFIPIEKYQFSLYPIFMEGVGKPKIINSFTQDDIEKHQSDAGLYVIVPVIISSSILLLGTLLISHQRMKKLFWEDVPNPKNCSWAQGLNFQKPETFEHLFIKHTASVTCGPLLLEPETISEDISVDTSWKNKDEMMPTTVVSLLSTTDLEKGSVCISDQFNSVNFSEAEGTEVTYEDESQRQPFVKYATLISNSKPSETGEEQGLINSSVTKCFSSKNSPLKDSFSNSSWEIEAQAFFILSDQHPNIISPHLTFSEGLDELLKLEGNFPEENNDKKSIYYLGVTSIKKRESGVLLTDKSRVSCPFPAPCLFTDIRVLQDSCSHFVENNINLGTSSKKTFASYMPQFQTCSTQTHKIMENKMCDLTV

Bmax [1]: 3600 MFI
Kd [1]: 620 nM
B1: yeast-displayed mouse leptin clone H17 (S109F) (ligand, UniProt P41160 22-167, looked up, not shown: large carriers; small tags and cut ends)
chain: VPIQKVQDDTKTLIKTIVTRINDISHTQSVSAKQRVTGLDFIPGLHPILSLSKMDQTLAVYQQVLTSLPSQNVLQIANDLENLRDLLHLLAFSKSCSLPQTSGLQKPEFLDGVLEASLYSTEVVALSRLQGSLQDILQQLDVSPEC
notes: mature

Bmax [2]: 1680 MFI
Kd [2]: 158 nM
B2: yeast-displayed mouse leptin clone L1 (D23N, Q34L, L114P) (ligand, UniProt P41160 22-167, looked up, not shown: large carriers; small tags and cut ends)
chain: VPIQKVQDDTKTLIKTIVTRINNISHTQSVSAKLRVTGLDFIPGLHPILSLSKMDQTLAVYQQVLTSLPSQNVLQIANDLENLRDLLHLLAFSKSCSLPQTSGLQKPESLDGVPEASLYSTEVVALSRLQGSLQDILQQLDVSPEC
notes: mature

Bmax [1]: 1450 MFI
Kd [1]: 91.7 nM
Bmax [2]: 1350 MFI
Kd [2]: 92.8 nM
B3: yeast-displayed mouse leptin clone H3 (D23G, L68M, S97F, S132Y) (ligand, UniProt P41160 22-167, looked up, not shown: large carriers; small tags and cut ends)
chain: VPIQKVQDDTKTLIKTIVTRINGISHTQSVSAKQRVTGLDFIPGLHPILSLSKMDQTLAVYQQVLTSMPSQNVLQIANDLENLRDLLHLLAFSKSCFLPQTSGLQKPESLDGVLEASLYSTEVVALSRLQGYLQDILQQLDVSPEC
notes: mature; also called H15; H4

BAF/3 bioassay: fold increase in bioactivity as compared to the WT mouse leptin antagonist [3]: 4.8 fold
Luciferase bioassay: fold increase in bioactivity as compared to the WT mouse leptin antagonist [3]: 4.2 fold
B4: mouse leptin antagonist H15 (D23G, L68M, S97F, S132Y + L39A/D40A/F41A), P41160 22-167 (ligand)
chain: AVPIQKVQDDTKTLIKTIVTRINGISHTQSVSAKQRVTGAAAIPGLHPILSLSKMDQTLAVYQQVLTSMPSQNVLQIANDLENLRDLLHLLAFSKSCFLPQTSGLQKPESLDGVLEASLYSTEVVALSRLQGYLQDILQQLDVSPEC

BAF/3 bioassay: fold increase in bioactivity as compared to the WT mouse leptin antagonist [3]: 2.4 fold
Luciferase bioassay: fold increase in bioactivity as compared to the WT mouse leptin antagonist [3]: 3.3 fold
B5: mouse leptin antagonist H22 (T12I + L39A/D40A/F41A), P41160 22-167 (ligand)
chain: AVPIQKVQDDTKILIKTIVTRINDISHTQSVSAKQRVTGAAAIPGLHPILSLSKMDQTLAVYQQVLTSLPSQNVLQIANDLENLRDLLHLLAFSKSCSLPQTSGLQKPESLDGVLEASLYSTEVVALSRLQGSLQDILQQLDVSPEC

BAF/3 bioassay: fold increase in bioactivity as compared to the WT mouse leptin [3]: 0.9 fold
Luciferase bioassay: fold increase in bioactivity as compared to the WT mouse leptin [3]: 0.7 fold
B6: recombinant mouse leptin mutein H12 (S97Y), agonist, P41160 22-167 (ligand)
chain: AVPIQKVQDDTKTLIKTIVTRINDISHTQSVSAKQRVTGLDFIPGLHPILSLSKMDQTLAVYQQVLTSLPSQNVLQIANDLENLRDLLHLLAFSKSCYLPQTSGLQKPESLDGVLEASLYSTEVVALSRLQGSLQDILQQLDVSPEC

BAF/3 bioassay: fold increase in bioactivity as compared to the WT mouse leptin antagonist [3]: 3.5 fold
Luciferase bioassay: fold increase in bioactivity as compared to the WT mouse leptin antagonist [3]: 2.9 fold
B7: mouse leptin antagonist H19 (D23G, T37A, G44D + L39A/D40A/F41A), P41160 22-167 (ligand)
chain: AVPIQKVQDDTKTLIKTIVTRINGISHTQSVSAKQRVAGAAAIPDLHPILSLSKMDQTLAVYQQVLTSLPSQNVLQIANDLENLRDLLHLLAFSKSCSLPQTSGLQKPESLDGVLEASLYSTEVVALSRLQGSLQDILQQLDVSPEC

BAF/3 bioassay: fold increase in bioactivity as compared to the WT mouse leptin antagonist [3]: 0.8 fold
Luciferase bioassay: fold increase in bioactivity as compared to the WT mouse leptin antagonist [3]: 0.1 fold
B8: mouse leptin antagonist H12 (S97Y + L39A/D40A/F41A), P41160 22-167 (ligand)
chain: AVPIQKVQDDTKTLIKTIVTRINDISHTQSVSAKQRVTGAAAIPGLHPILSLSKMDQTLAVYQQVLTSLPSQNVLQIANDLENLRDLLHLLAFSKSCYLPQTSGLQKPESLDGVLEASLYSTEVVALSRLQGSLQDILQQLDVSPEC

BAF/3 bioassay: fold increase in bioactivity as compared to the WT mouse leptin [3]: 0.5 fold
Luciferase bioassay: fold increase in bioactivity as compared to the WT mouse leptin [3]: 0.8 fold
B9: recombinant mouse leptin mutein H15 (D23G, L68M, S97F, S132Y), agonist, P41160 22-167 (ligand)
chain: AVPIQKVQDDTKTLIKTIVTRINGISHTQSVSAKQRVTGLDFIPGLHPILSLSKMDQTLAVYQQVLTSMPSQNVLQIANDLENLRDLLHLLAFSKSCFLPQTSGLQKPESLDGVLEASLYSTEVVALSRLQGYLQDILQQLDVSPEC

biological activity: fold reduction by pegylation of MLA [3]: 7 fold
B10: pegylated mouse leptin antagonist (PEG-MLA), P41160 22-167 (ligand)
chain: AVPIQKVQDDTKTLIKTIVTRINDISHTQSVSAKQRVTGAAAIPGLHPILSLSKMDQTLAVYQQVLTSLPSQNVLQIANDLENLRDLLHLLAFSKSCSLPQTSGLQKPESLDGVLEASLYSTEVVALSRLQGSLQDILQQLDVSPEC
modifications: here or on the partner: pegylated (method previously described for MLA; 20 kDa PEG, site not restated here)

BAF/3 bioassay: fold increase in bioactivity as compared to the WT mouse leptin antagonist [3]: 3.3 fold
Luciferase bioassay: fold increase in bioactivity as compared to the WT mouse leptin antagonist [3]: 3.3 fold
B11: mouse leptin antagonist H16 (D23G, G112S + L39A/D40A/F41A), P41160 22-167 (ligand)
chain: AVPIQKVQDDTKTLIKTIVTRINGISHTQSVSAKQRVTGAAAIPGLHPILSLSKMDQTLAVYQQVLTSLPSQNVLQIANDLENLRDLLHLLAFSKSCSLPQTSGLQKPESLDSVLEASLYSTEVVALSRLQGSLQDILQQLDVSPEC

BAF/3 bioassay: fold increase in bioactivity as compared to the WT mouse leptin [3]: 0.8 fold
Luciferase bioassay: fold increase in bioactivity as compared to the WT mouse leptin [3]: 0.7 fold
B12: recombinant mouse leptin mutein H22 (T12I), agonist, P41160 22-167 (ligand)
chain: AVPIQKVQDDTKILIKTIVTRINDISHTQSVSAKQRVTGLDFIPGLHPILSLSKMDQTLAVYQQVLTSLPSQNVLQIANDLENLRDLLHLLAFSKSCSLPQTSGLQKPESLDGVLEASLYSTEVVALSRLQGSLQDILQQLDVSPEC
